Results from patent US20110145940, “TAL EFFECTOR-MEDIATED DNA MODIFICATION” (published 2011).

Molecular target: AvrBs3 TALEN (BamHI fragment-FokI) (Xanthomonas campestris pv. vesicatoria, UniProt P14727 SEQ:26-1141)
Experiment: cell_activity; yeast lacZ SSA assay, 18 bp spacer; optima 15 and 21 bp
Conditions: tags: FokI catalytic domain fusion, N-terminal NLS; chain copies: 2 (inferred); two sites in inverted orientation around spacer

B1: AvrBs3 site (dsDNA)
DNA 1: ATATAAACCTAACCATCC
DNA 2: GGATGGTTAGGTTTATAT
  activity: 15.8 fold over target-only control
